Measurements from the nanobody polyreactivity screen of Harvey et al. (2022).

Assay: yeast display, Sf9 membrane polyspecificity reagent, FACS + sequencing; frameworks hold sequencing errors
In short: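 Genes from sorted yeast were amplified by colony PCR, read by MiSeq 2 × 250 sequencing and filtered on CDR length. These cells carried a synthetic nanobody library in Saccharomyces cerevisiae BJ5465 and were sorted by FACS into low and high (top ~1%) gates on anti-HA and streptavidin fluorescence. Polyreactivity is labelled according to the gate of origin.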

Sequence | polyreactivity (PSR sort gate)
QVQLVESGGGLVQAGGILRLSCPASGRTFEYYAMGWYRQAPGKERELVASISFGGGSTYADSVKGRFTISRDNAKNTVYLQMNSLKPEDTAVYYCAATGGWYKHWFDYWGQGTQVTVSS | low polyreactivity
QVQLVESGGGLVQAGGILRLTCAASGRTNTYNAMGSYRQAPGKERELVAAITWSGGSTYYADSVKGRFTISRDNAKNTVYLQMNSLKPEDTAVYYCAKEFYYSSGFDYWGQGTQVTVSS | low polyreactivity
QVQLVESGGGLVQAGGILSLSCAASGSTFVGNAMGWYRPAPGKERELVATISNSGGRTYYADSVKGRFTISRDNAKNTVYLQMNSLKPEETAVYYCAADPPAFGPGYSFDYWGHGTQVTVSS | low polyreactivity
QVQLVESGGGLVQAGGILSLSCADSGRIFDIYAMGWYRQAPGKERELVASISWSGDSTYYADSVKGRFTISRDNAKNTVYLQMNSLKPEDTAVYYCDAVGEDTEGYDFDYWGQGTQVTVSS | low polyreactivity
QVQLVESGGGLVQAGGNLRLSCAASGLIFWYNAMGWYRQAPGKERELVAAINWSGDSTYYADSVKGRFTISRDNAKNTVYLQMNSLKPEDTAVYYCAATEQSYGYDYWGQGTQVTVSS | low polyreactivity
QVQLVESGGGLVQAGGPLRLSCAASGIIFGFYAMGWYRQPPGKERELVADITSSGGSTYYADSVKGRFTISRDNAKNTVYLQINSLKPEDTAVYYCAADGVPGGPPVEGMDYWGQGTQVTVSS | low polyreactivity
QVQLVESGGGLVQAGGRHRLSCAASGRTFGVYAMGWYRQAPGKEREFVGVISWSDDSTYYADSVKGRFTISRDNAKNTVSLQMNSLKPEDTAVYYCNADDYLVYSGSHYGYWGQGTQVTVSS | low polyreactivity
QVQLVESGGGLVQAGGRHRLSCAASGSIFTVYTIGWYRQAPGKEREFVAAINSRGGTTYYADSVKGRFTISRDNAKNTVYLQMNSLKPEDTAVYYCAAKQRPKSYGPGHYYWGQGTQVTVSS | high polyreactivity
QVQLVESGGGLVQAGGRHRLSCAPSASIFSVNAMGWYRQAPGKERELVAAISWRGASTYYADSVKGRFTISRDNPKNTVYLQMNSLKPEDTAVYYCAAKGTGGDQYYAFDYWGQGTQVTVSS | low polyreactivity
QVQLVESGGGLVQAGGRLLLSCAASGGTFRVYAMGWYIQAPGKERELVASISWSSGITYYADSVKGRFTISRDNAKNTVYLQMNSLKPEDTAFYYCAAEGHVTYGAPGRLYRMGYWGQGTQVTVSS | low polyreactivity
QVQLVESGGGLVQAGGRLRFSCAASGRIFYSYTMGWYRQAPGKERELVASISRSSGDTYYADSVKGRFTISRDNAKNPVYLQMNSLKPEDTAVYYWAARIKTYSKRYYWGQGTQVTVSS | high polyreactivity
QVQLVESGGGLVQAGGRLRISSAASGFIFYVNAKGWYRQAPGKERELVAAISWSGGSTYYADSVKGRFTISRDNAKNTVYLQMNSLKPEDPAFYYCAAGASPYEGYDNWGQGTQVTVSS | low polyreactivity
QVQLVESGGGLVQAGGRLRLICAASGFIFWKNAMGWYRQSPGKQRELVAAISTRGGSTYYADSVKGRFTISRDNAKNSVYLQMNSLKPEDTAVYYCNKEWYQYKHNYWGQGTQVSVSS | low polyreactivity
QVQLVESGGGLVQAGGRLRLICAASGRTSRIYAMGWYRQAPGKWELVAAISGSGSRTYYADSVKGRFTISRDNAKNTVYFQMNSLKPEDTAVSYCNARYWYRHHPPEFDYWGQGTQVTVSS | high polyreactivity
QVQLVESGGGLVQAGGRLRLICAASGSILNNYAMGWYRQAPGKERELVAAISSSGGTNYADSVKGRFTISRDNAKNTVYLQMNSLKPEDTAVYYCNADVLDGGYDYWGQGTQVTVSS | low polyreactivity
QVQLVESGGGLVQAGGRLRLRCAASGSTFGYYAMGWYRQAPGKERELVAAISRSGGITYYADSVKGRFTISRDNAKNTVYLQMNSLKPEDTAVYYCAADRNRYTGEDDSWGEGTQVTVSS | low polyreactivity

Sequence | polyreactivity (PSR sort gate)
QVQLVESGGGLVQAGGRLRLSCAASGFIFRPYAMGWYRQAPGKERELVPTISYRGGSTDYADSVKGRFTISRDNAKNTVYLQMNSLKPEDTAVYYCNAGYNRGYYYPVFAFFPYEYWGQGTQVTVSS | low polyreactivity
QVQLVESGGGLVQAGGRLRLSCAASGFTFPRYAMGWYRQAPGKERELVAAISRGGSTNYADSVKGRFTISRDNAKNTVYLQMNSLKPEDTAVYDCAKVLRRWPDPAWGMDYWGQGTQVTVSS | high polyreactivity
QVQLVESGGGLVQAGGRLRLSCAASGFTFRGYAMGWYRQAPGKERELVAAITKRGGSTYYADSVKGRFTISRDNAKNTVYLQMNSLKPEDTAVYYCNKYAGQTTYDYWGQGTQVTVSS | high polyreactivity
QVQLVESGGGLVQAGGRLRLSCAASGFTFTRYTMGWYRQAPGKERELVARITRSGASTYYADSVKGRFTISRDNAKNTVYLQMNSLKPEDTAVYYCAADTWSYTTRYYYWGQGTQVTVSS | high polyreactivity
QVQLVESGGGLVQAGGRLRLSCAASGFTFYNYAMGWYRQAPGKERELVAAISWSGGSTHYADSVKGRFTISRDNAKNTVFLQMNSLKPEDTAVYYCAKVGVLGYYTYYYWGQGTQVTVSS | low polyreactivity
QVQLVESGGGLVQAGGRLRLSCAASGFTFYWNAMGWYRQAPGKERELVAAINWRGTSTYYADSVKGRFTISRDNAKNTVYLQMNSLKPEDTAVDYCNTYVYVEYDWGQGTQVTVSS | high polyreactivity
QVQLVESGGGLVQAGGRLRLSCAASGFTFYYYTMGWYRQAPGKEREVVAAITWRGGSTNYADSVKGRFTISRDNAKNTVYLQMNSLKPEDTAVYYCAAVTYWFWPGMDYWGQGTQVTVSS | low polyreactivity
QVQLVESGGGLVQAGGRLRLSCAASGFTYRGNAMGWYRHAPGKERELVAAITSSDDSTYYADSVKGRFTISRDNAKITVYLQMNSLKPVDTAVYYCAAVANGYWTYEYWGQGTLVTVSS | low polyreactivity
QVQLVESGGGLVQAGGRLRLSCAASGGTFHKYAMGWYRQAPGKERELVAGISRRTGTTYYADSVKGRFTISRDNAKNTVYLQMNSLKPEDTAVYYCATDWGRYSRLSKADPSDYWGQGTHVTVSS | high polyreactivity
QVQLVESGGGLVQAGGRLRLSCAASGGTFYYYAMGWYRQAPGKERELVAAIRRRGGGTYSADSVKGRFTISRDNAKNTVYLQMNSLKPEDTAVYYCARDKLRSWWGDYNTYYPDDSWGQGTQVTVSS | high polyreactivity
QVQLVESGGGLVQAGGRLRLSCAASGIIFDTYVMGWYRQAPGKERELVAAITRSGGRTRYADSVKGRFTISRDNAKNTVYLQMNSLKPEDTAVYYCAARIPDRQDGYGYWGQGTQVTVSS | high polyreactivity
QVQLVESGGGLVQAGGRLRLSCAASGITFRTYAMGWYREAPGKERELVDAITRRGGSTYYADSVKGRFTISRDNAKNTVYLQMNSLKPEDTAVYYCAVRHNGIQASVGYDYWGQGTQVTGSS | high polyreactivity
QVQLVESGGGLVQAGGRLRLSCAASGITFSGYVLGWDRPAPGKERELVAAISSSGGRTYYADSVKGRFTISRDNAKNTVYLQMNSLKPEDTAVYYCAARFLYANRYSVDYDYWGQGTQVTVSS | high polyreactivity
QVQLVESGGGLVQAGGRLRLSCAASGITFYENAMGWYRQAPGKERELVAAISYSGGNTYPDSVKGRFTISRDNEKNTVYLQMNSLKPEDTAVYYCNADYAGWGEYDYCGQGTQVTVSS | low polyreactivity
QVQLVESGGGLVQAGGRLRLSCAASGLIFDDYAMGWYRQAPGKERALVAAIDWGGGSTYYADSVKGRFTISRDNAKNTVYLQMNSLTPEHTAVYYCAADSYFSYRYNYWGQGTQVTVSS | low polyreactivity
QVQLVESGGGLVQAGGRLRLSCAASGLTFGRYAMGWYRQAPGKERELVAVINGSGGNTYYADSVKGRFTISRDNAKNTVYLQMNSLKPEDTAVYYCAARRTVQYTLYYYPDYNYWGQGTQVTVSS | low polyreactivity
